Data on 4 substances can be found in IntAct's records for PubMed 24668264.

Test [1] has as its target mlp3c_human MAP1LC3C (UniProt Q9BXW4).
For test [2], the target named is wdfy3_human WDFY3 (UniProt Q8IZQ1).
Test [3] has as its target mlp3b_human MAP1LC3B (UniProt Q9GZQ8).
Test [4] addresses mlp3c_human MAP1LC3C (UniProt Q9BXW4). This is another data set of the same source.

UniProt Q9BXW4, sequence (Q9BXW4 whole entry): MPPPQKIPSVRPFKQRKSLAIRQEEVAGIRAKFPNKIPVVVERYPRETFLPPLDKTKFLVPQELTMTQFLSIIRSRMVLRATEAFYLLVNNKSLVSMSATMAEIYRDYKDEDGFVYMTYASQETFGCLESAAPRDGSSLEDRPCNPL
UniProt Q8IZQ1, sequence (Q8IZQ1 whole entry): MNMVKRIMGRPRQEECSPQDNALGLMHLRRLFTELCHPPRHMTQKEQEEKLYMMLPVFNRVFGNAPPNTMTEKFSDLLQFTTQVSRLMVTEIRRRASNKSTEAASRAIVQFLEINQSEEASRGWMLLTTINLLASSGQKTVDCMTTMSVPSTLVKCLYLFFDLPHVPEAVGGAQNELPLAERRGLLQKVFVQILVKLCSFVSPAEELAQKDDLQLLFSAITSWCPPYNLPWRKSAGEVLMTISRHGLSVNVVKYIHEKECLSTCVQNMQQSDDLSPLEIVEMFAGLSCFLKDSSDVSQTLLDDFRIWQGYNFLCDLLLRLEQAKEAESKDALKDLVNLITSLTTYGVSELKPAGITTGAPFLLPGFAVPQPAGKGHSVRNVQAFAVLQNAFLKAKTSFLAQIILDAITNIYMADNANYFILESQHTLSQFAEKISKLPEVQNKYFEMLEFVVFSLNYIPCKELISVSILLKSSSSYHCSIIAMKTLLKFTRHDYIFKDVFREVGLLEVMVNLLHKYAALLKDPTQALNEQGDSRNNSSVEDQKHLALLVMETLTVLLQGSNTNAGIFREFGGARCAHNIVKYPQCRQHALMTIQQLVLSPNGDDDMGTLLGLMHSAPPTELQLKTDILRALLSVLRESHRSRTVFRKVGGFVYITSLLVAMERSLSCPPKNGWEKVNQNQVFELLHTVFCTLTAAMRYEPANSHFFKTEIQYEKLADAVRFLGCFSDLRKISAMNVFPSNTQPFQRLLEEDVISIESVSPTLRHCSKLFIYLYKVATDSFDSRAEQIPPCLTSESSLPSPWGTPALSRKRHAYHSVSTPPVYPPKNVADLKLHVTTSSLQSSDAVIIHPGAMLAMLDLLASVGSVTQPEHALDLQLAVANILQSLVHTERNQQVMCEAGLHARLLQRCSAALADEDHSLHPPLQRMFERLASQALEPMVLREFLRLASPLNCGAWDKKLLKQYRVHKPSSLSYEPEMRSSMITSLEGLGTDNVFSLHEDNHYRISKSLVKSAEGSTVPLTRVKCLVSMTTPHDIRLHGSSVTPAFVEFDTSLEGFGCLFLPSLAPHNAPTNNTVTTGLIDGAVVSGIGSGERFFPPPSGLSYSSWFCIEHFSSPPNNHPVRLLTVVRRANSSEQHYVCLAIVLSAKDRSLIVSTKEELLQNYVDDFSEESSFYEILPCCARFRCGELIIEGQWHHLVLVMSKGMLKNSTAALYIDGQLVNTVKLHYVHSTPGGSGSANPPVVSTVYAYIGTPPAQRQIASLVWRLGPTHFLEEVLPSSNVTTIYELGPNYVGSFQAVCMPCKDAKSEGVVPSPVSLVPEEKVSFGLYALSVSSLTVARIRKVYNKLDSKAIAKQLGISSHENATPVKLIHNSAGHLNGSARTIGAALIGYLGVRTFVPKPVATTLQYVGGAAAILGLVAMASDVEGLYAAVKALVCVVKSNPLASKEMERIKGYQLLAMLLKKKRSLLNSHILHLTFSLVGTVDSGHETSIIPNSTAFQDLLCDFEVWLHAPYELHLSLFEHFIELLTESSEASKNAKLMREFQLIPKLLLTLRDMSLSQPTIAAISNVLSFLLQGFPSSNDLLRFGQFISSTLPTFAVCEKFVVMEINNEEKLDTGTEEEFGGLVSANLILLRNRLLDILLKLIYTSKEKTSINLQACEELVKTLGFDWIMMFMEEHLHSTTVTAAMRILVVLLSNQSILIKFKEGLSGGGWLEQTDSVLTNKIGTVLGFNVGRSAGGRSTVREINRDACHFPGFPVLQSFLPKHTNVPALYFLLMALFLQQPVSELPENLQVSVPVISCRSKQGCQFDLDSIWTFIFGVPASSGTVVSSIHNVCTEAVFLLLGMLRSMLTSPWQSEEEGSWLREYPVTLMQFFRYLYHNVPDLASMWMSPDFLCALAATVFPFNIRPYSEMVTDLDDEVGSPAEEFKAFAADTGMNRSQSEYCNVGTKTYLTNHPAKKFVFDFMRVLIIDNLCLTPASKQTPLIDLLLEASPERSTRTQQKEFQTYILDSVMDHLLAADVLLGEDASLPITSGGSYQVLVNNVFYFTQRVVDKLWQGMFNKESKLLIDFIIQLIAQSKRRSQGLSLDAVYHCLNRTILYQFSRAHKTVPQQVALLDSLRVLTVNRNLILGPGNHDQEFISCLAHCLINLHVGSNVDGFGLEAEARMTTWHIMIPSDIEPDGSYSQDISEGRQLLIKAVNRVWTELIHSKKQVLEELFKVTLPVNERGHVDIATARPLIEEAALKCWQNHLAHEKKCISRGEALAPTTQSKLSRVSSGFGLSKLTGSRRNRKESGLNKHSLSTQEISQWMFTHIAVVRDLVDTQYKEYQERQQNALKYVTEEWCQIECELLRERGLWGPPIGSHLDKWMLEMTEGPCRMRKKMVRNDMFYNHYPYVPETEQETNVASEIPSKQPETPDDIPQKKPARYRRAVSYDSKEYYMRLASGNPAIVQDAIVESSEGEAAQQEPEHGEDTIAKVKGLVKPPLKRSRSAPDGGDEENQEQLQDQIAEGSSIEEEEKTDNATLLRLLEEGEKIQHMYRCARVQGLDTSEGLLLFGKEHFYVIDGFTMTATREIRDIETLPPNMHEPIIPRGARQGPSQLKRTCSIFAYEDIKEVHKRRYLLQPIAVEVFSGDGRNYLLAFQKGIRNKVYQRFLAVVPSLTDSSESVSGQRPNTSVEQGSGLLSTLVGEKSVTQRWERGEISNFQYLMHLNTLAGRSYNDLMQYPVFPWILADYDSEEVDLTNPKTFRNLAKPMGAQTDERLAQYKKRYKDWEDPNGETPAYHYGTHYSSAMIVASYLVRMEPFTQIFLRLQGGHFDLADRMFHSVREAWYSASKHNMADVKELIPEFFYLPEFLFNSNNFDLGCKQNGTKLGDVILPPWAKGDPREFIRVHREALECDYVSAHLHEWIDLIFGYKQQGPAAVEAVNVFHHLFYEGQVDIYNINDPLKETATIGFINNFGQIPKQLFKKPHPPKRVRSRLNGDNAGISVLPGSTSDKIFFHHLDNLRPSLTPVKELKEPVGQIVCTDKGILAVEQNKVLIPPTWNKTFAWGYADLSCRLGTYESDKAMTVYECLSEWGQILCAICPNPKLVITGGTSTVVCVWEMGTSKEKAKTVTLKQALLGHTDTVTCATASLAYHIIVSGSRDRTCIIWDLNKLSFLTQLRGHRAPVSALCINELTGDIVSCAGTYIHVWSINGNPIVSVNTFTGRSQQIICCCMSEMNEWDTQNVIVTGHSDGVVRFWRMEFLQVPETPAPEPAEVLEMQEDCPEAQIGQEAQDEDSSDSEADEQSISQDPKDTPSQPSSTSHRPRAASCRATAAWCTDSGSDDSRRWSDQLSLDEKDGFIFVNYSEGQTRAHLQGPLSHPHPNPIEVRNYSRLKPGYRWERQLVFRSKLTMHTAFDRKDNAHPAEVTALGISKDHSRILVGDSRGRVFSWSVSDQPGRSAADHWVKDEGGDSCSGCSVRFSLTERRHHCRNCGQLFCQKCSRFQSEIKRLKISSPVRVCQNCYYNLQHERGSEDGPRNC

Turning to “WD repeat and FYVE domain-containing protein 3 (Homo sapiens), Q8IZQ1 V3349A”, the “effect of a mutation on the interaction” value in test [1] was “decreasing interaction”. Consider “Microtubule-associated protein 1 light chain 3 beta (Homo sapiens) (from UniProt Q9GZQ8) Q26K;H27Y;H57D”, for which, in test [2], the “effect of a mutation on the interaction” value was “increasing interaction”. Consider “WD repeat and FYVE domain-containing protein 3 (Homo sapiens), Q8IZQ1 F3346A”, for which, in test [3], the “effect of a mutation on the interaction” value was “disrupting interaction”.

Regarding “WD repeat and FYVE domain-containing protein 3 (Homo sapiens), Q8IZQ1 I3347A”, the “effect of a mutation on the interaction” value in test [4] is given as “decreasing interaction”.
